In general, EC50 refers to the concentration needed to bring the measured effect to its halfway point.

Drawing on patent publication US11155602B2, “Polypeptides targeting HIV fusion” (priority 2015, dated 2021), this text covers EC50 for 13 molecules.

B1: 127 (protein)
chain: MGHHHHHHGGVSDVPRDLEVVAATPTSLLISWQYKVHPYRYYRITYGETGGNSPVQEFTVPSVLSSAQISGLKPGVDYTITVYAVTYGIESSPISINYRTPGG
modifications: Adnectin
B2: 249 (protein)
chain: MGHHHHHHGGSVSDVPRDLEVVAATPTSLLISWEYKVHPYRYYRITYGETGGNSPVQEFTVPSVLSSATLNGLKPGVDYTITVYAVTYGDDSAPISINYRTEID
modifications: Adnectin
B3: 251 (protein)
chain: MGHHHHHHGGSVSDVPRDLEVVAATPTSLLISWEYKVHPYRYYRITYGETGGNSPVQEFNVPSVLSTATISGLKPGVDYTITVYAVTYGDDSAPISINYRTEID
modifications: Adnectin
B4: 255 (protein)
chain: MGHHHHHHGGSVSDVPRDLEVVAATPTSLLISWEYKVHPYRYYRITYGETGGNSPVQEFTVPSVLSTATISGLKPGVDYTITVYAVTYGDDSAPISINYRTEID
modifications: Adnectin
B5: 250 (protein)
chain: MGHHHHHHGGSVSDVPRDLEVVAATPTSLLISWEYKVHPYRYYRITYGETGGNSPVQEFTVPSVLSSAKISGLKPGVDYTITVYAVTYGDDSAPISINYRTEID
modifications: Adnectin
B6: 252 (protein)
chain: MGHHHHHHGGSVSDVPRDLEVVAATPTSLLISWEYKVAHRRYYRITYGETGGNSPVQEFTVPSVLSTATISGLKPGVDYTITVYAVTYGDDSAPISINYRTEID
modifications: Adnectin
B7: 260 (protein)
chain: MGHHHHHHGGSVSDVPRDLEVVAATPTSLLISWEYKVHPYRYYRITYGETGGNSPVQEFRVPSVLSTATISGLKPGVDYTITVYAVTYGDDSAPISINYRTEID
modifications: Adnectin
B8: 253 (protein)
chain: MGHHHHHHGGSVSDVPRDLEVVAATPTSLLISWEYKVDAYRYYRITYGETGGNSPVQEFTVPSVLSTATISGLKPGVDYTITVYAVTYGDDSAPISINYRTEID
modifications: Adnectin
B9: 257 (protein)
chain: MGHHHHHHGGSVSDVPRDLEVVAATPTSLLISWEYKVHPYRYYRITYGETGGNSPVQEFTVPSVLSTATISGLKPGVDYTITVYAVTNGDDSAPISINYRTEID
modifications: Adnectin
B10: 256 (protein)
chain: MGHHHHHHGGSVSDVPRDLEVVAATPTSLLISWEYKVHPYRYYRITYGETGGNSPVQEFTVPSVLSTATISGLKPGVDYTITVYAVTYGDASAPISINYRTEID
modifications: Adnectin
B11: 259 (protein)
chain: MGHHHHHHGGSVSDVPRDLEVVAATPTSLLISWEYKVHPYRYYRITYGETGGNSPVQEFTVPSVLSTAKISGLKPGVDYTITVYAVTYGDDSAPISINYRTEID
modifications: Adnectin
B12: 254 (protein)
chain: MGHHHHHHGGSVSDVPRDLEVVAATPTSLLISWEYKVDSYRYYRITYGETGGNSPVQEFTVPSVLSTATISGLKPGVDYTITVYAVTYGDDSAPISINYRTEID
modifications: Adnectin
B13: 258 (protein)
chain: MGHHHHHHGGSVSDVPRDLEVVAATPTSLLISWEYKVHPYRYYRITYGETGGNSPVQEFTVPSVLSSATIRGLKPGVDYTITVYAVTYGDDSAPISINYRTEID
modifications: Adnectin

The test system of the assay is NL-Rluc virus. Put plainly: Combinectin potency assay: antiviral EC50, NL-Rluc virus in MT-2 cells, luciferase readout. It counts as cell-based, HIV-1. To be noted: Anti-N17 Adnectin, Table 3. The method, boiled down: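 Peptides, serially diluted threefold over 11 points in triplicate, were exposed for 4–5 days to MT-2 cells preinfected 1 h with NL-Rluc virus (MOI 0.01). Replication read out as Renilla luciferase signal, with EC50 derived against untreated infected controls.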
As to B1, the EC50 stood at 0.009 µM.

Turning to B2, the EC50 worked out at 0.083 µM.

With B3, the EC50 stood at 0.186 µM.

Regarding B4, the EC50 worked out at 0.136 µM.

In the case of B5, the EC50 was 0.218 µM.

With B6, the EC50 was > 1 µM.

Take B7: the EC50 is 0.188 µM.

For B8, the EC50 is > 1 µM.

Consider B9, for which the half-maximal effective concentration (EC50) is > 1 µM.

Turning to B10, the EC50 was determined as 0.17 µM.

Consider B11, for which the EC50 was 0.135 µM.

Turning to B12, the half-maximal effective concentration (EC50) was > 1 µM.

Turning to B13, the concentration giving a half-maximal response (EC50) stood at 0.195 µM.
